From the supplement of paper PMC7877785
± gives the uncertainty stated by the source.

Assay: self-splicing fitness, log relative to wild type (ln ratio); higher = more splicing; Tetrahymena group I intron in knt gene, E. coli kanamycin selection, DiMSum; sequences stand for … in CUCUCU…GGAGGGAAAAGUUAUCAGGCAUGCACCUGGUAGCUAGUCUUUAAACCAAUAGAUUGCAUCGGUUUAAAAGGCAAGACCGUCAAAUUGCGGGAAAGGGGUCAACAGCCGUUCAGUACCAAGUCUCAGGGGAAACUUUGAGAUGGCCUUGCAAAGGGUAUGGUAAUAAGCUGACGGACAUGGUCCUAACCACGCAGCCAAGUCCUAAGUCAACAGAUCUUCUGUUGAUAUGGAUGCAGUUCACAGACUAAAUGUCGGUCGGGGAAGAUGUAUUCUUCUCAUAAGAUAUAGUCGGACCUCUCCUUAAUGGGAGCUAGCGGAUGAAGUGAUGCAACACUGGAGCCGCUGGGAACUAAUUUGUAUGCGAAAGUAUAUUGAUUAGUUUUGGAGUACUCGUGGUCG
Method in brief: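 The eight P1ex-region nucleotides of an intron in the knt kanamycin-resistance gene on pET-22b(+) were all randomised and the library put into E. coli BL21(DE3). Six replicate transformations were grown overnight at 37°C or 30°C on LB agar with or without 25 μg/mL kanamycin, together with 100 μg/mL carbenicillin, 50 μM IPTG and 0.2% rhamnose. Colonies were pooled and amplicon-sequenced on an Illumina HiSeq 2500. Fitness from DiMSum is the error-weighted combination of wild-type-normalised replicate fold changes, kanamycin over none.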

| Sequence | self-splicing fitness (ln) (30 °C) | self-splicing fitness (ln) (37 °C) |
| --- | --- | --- |
| GAGUAGCAAUAUUACGGCAC | -0.661 ± 0.2 | -0.256 ± 0.21 |
| UUAAAGCAAUAUUACGUGCG | -0.23 ± 0.058 | -0.242 ± 0.085 |
| CGACAGCAAUAUUACGGCUG | -3.32 ± 0.19 | -0.951 ± 0.16 |
| CUGUAGCAAUAUUACGUCAU | -4.07 ± 0.3 | -3.14 ± 0.24 |
| GAUAAGCAAUAUUACGUCAA | -1.66 ± 0.16 | -1.39 ± 0.14 |
| CCCGAGCAAUAUUACGACAG | – | -2.46 ± 0.41 |
| AACAAGCAAUAUUACGGCUU | -1.14 ± 0.081 | -0.539 ± 0.084 |
| CUAAAGCAAUAUUACGGAGG | -1.82 ± 0.1 | 0.0636 ± 0.12 |
| AGAGAGCAAUAUUACGUUCA | -2.39 ± 0.22 | -1.81 ± 0.22 |
| AAAGAGCAAUAUUACGAGUA | -3.87 ± 0.46 | -2.58 ± 0.28 |
| GCGAAGCAAUAUUACGGCAU | -1.25 ± 0.099 | -0.00655 ± 0.089 |
| UUACAGCAAUAUUACGUUAA | -1.12 ± 0.11 | -0.847 ± 0.085 |
| AGACAGCAAUAUUACGGGGA | -3.11 ± 0.17 | -1.82 ± 0.12 |
| CUGUAGCAAUAUUACGCGUU | -4.19 ± 0.3 | -2.26 ± 0.18 |
| UGUUAGCAAUAUUACGAGAG | -3.33 ± 0.33 | -3.15 ± 0.27 |
| UUCAAGCAAUAUUACGCGUC | -2.89 ± 0.15 | -0.969 ± 0.16 |
| AGGGAGCAAUAUUACGUCAU | -3.06 ± 0.28 | -2.74 ± 0.31 |
| AUCGAGCAAUAUUACGGGGA | -2.83 ± 0.22 | -1.18 ± 0.15 |
| GAGGAGCAAUAUUACGCGAA | -2.67 ± 0.35 | -2.05 ± 0.3 |
| GACCAGCAAUAUUACGGGGC | -2.78 ± 0.18 | -2.14 ± 0.15 |
| CUUCAGCAAUAUUACGCCUU | -2.35 ± 0.15 | -3.25 ± 0.25 |
| CUUCAGCAAUAUUACGGAUG | -1.48 ± 0.069 | -0.191 ± 0.1 |
| CUGUAGCAAUAUUACGCGGU | -3.17 ± 0.23 | -2.33 ± 0.24 |
| UAUAAGCAAUAUUACGCCUA | 0.213 ± 0.12 | 0.0424 ± 0.17 |
| AAGGAGCAAUAUUACGCGAA | -1.94 ± 0.22 | -1.39 ± 0.23 |
| CCCAAGCAAUAUUACGCUGU | -3.8 ± 0.15 | -2.95 ± 0.17 |

| Sequence | self-splicing fitness (ln) (30 °C) | self-splicing fitness (ln) (37 °C) |
| --- | --- | --- |
| UUGGAGCAAUAUUACGUGAC | -2.9 ± 0.41 | -0.119 ± 0.45 |
| AUUGAGCAAUAUUACGGCAG | -2.56 ± 0.18 | -1.38 ± 0.27 |
| GUUCAGCAAUAUUACGGAGU | -1.48 ± 0.12 | -0.963 ± 0.15 |
| AACGAGCAAUAUUACGAAUU | -2.78 ± 0.11 | -2.16 ± 0.12 |
| CGGCAGCAAUAUUACGCGGA | – | -2.7 ± 0.3 |
| CCACAGCAAUAUUACGGAAG | -1.87 ± 0.098 | -0.76 ± 0.1 |
| GUUCAGCAAUAUUACGAAAG | -0.36 ± 0.24 | 0.462 ± 0.22 |
| AGUCAGCAAUAUUACGACCG | 0.0414 ± 0.095 | 0.085 ± 0.13 |
| UAAUAGCAAUAUUACGGGCC | -3.78 ± 0.44 | -2.52 ± 0.48 |
| GAAUAGCAAUAUUACGUAGG | -3.4 ± 0.15 | -2.68 ± 0.2 |
| CAACAGCAAUAUUACGGUGU | -3.34 ± 0.12 | -2.55 ± 0.14 |
| GUGAAGCAAUAUUACGAGCC | – | -2.76 ± 0.48 |
| AGGGAGCAAUAUUACGUGGU | – | -3.13 ± 0.4 |
| CGGCAGCAAUAUUACGGGCA | -2.31 ± 0.26 | -0.644 ± 0.13 |
| CGAAAGCAAUAUUACGCGCG | -2.64 ± 0.16 | -1.34 ± 0.17 |
| ACUCAGCAAUAUUACGUCGG | -1.74 ± 0.07 | -1.25 ± 0.084 |
| CGCAAGCAAUAUUACGUUAG | -1.15 ± 0.073 | -1.42 ± 0.1 |
| CAUUAGCAAUAUUACGCCCU | -2.38 ± 0.22 | -1.55 ± 0.24 |
| GGGUAGCAAUAUUACGCAGC | -2.55 ± 0.13 | -0.837 ± 0.12 |
| GGAGAGCAAUAUUACGAUAG | – | -1.94 ± 0.28 |
| AUGCAGCAAUAUUACGCGUG | -3.92 ± 0.17 | -2.59 ± 0.18 |
| CAAGAGCAAUAUUACGCGUC | -2.16 ± 0.17 | -2.23 ± 0.23 |
| CAUGAGCAAUAUUACGCUGU | -3.14 ± 0.23 | -1.14 ± 0.23 |
| GCUCAGCAAUAUUACGCGAC | -3.49 ± 0.3 | 0.167 ± 0.16 |
| UUUUAGCAAUAUUACGUGAC | -3.41 ± 0.28 | -0.031 ± 0.22 |
| GUAUAGCAAUAUUACGUAAG | -1.48 ± 0.13 | -0.567 ± 0.14 |

| Sequence | self-splicing fitness (ln) (30 °C) | self-splicing fitness (ln) (37 °C) |
| --- | --- | --- |
| GUCGAGCAAUAUUACGAGGG | – | -1.04 ± 0.21 |
| UUGUAGCAAUAUUACGUGUA | -1.34 ± 0.12 | -1.12 ± 0.15 |
| AGCUAGCAAUAUUACGGGUG | -1.04 ± 0.068 | -0.416 ± 0.087 |
| GGCUAGCAAUAUUACGGAUU | -0.369 ± 0.13 | 0.405 ± 0.16 |
| UUCAAGCAAUAUUACGUCUC | -3.33 ± 0.26 | -1.74 ± 0.18 |
| CAAGAGCAAUAUUACGCCUG | -1.47 ± 0.21 | -2.17 ± 0.32 |
| AUCAAGCAAUAUUACGACCC | -1.34 ± 0.17 | -0.0224 ± 0.3 |
| CUUCAGCAAUAUUACGCGUU | -2.33 ± 0.12 | -2.7 ± 0.21 |
| GUUUAGCAAUAUUACGAUCC | -0.72 ± 0.26 | -0.434 ± 0.32 |
| ACCGAGCAAUAUUACGAACC | -2.9 ± 0.39 | – |
| AUGUAGCAAUAUUACGACGG | -2.09 ± 0.18 | -1.5 ± 0.17 |
| CUCAAGCAAUAUUACGGCUG | -3.41 ± 0.26 | -2.57 ± 0.27 |
| CGUCAGCAAUAUUACGUACA | -0.533 ± 0.072 | 0.154 ± 0.087 |
| AUCGAGCAAUAUUACGUUCC | -1.89 ± 0.24 | -2.02 ± 0.26 |
| UGGAAGCAAUAUUACGAUUG | -1.76 ± 0.12 | -0.362 ± 0.12 |
| AACCAGCAAUAUUACGAGCC | -2.85 ± 0.17 | -1.72 ± 0.16 |
| UUUCAGCAAUAUUACGCGUU | -2.13 ± 0.21 | -0.852 ± 0.17 |
| UGCGAGCAAUAUUACGUAGG | -3.81 ± 0.18 | -2.76 ± 0.21 |
| AAGUAGCAAUAUUACGUCCU | -0.128 ± 0.11 | 0.294 ± 0.14 |
| UGUCAGCAAUAUUACGUGAU | -2.85 ± 0.13 | -1.81 ± 0.14 |
| CGUCAGCAAUAUUACGCACU | -0.336 ± 0.071 | 0.339 ± 0.079 |
| ACAAAGCAAUAUUACGGAGC | -3.17 ± 0.13 | -2.62 ± 0.15 |
| GGAAAGCAAUAUUACGUCAG | -3.08 ± 0.38 | -2.25 ± 0.27 |
| GCAUAGCAAUAUUACGCUGG | – | -2.15 ± 0.49 |
| AUACAGCAAUAUUACGGGCA | -0.996 ± 0.099 | -0.765 ± 0.1 |
